The subject of the data set is MS2 coat protein. Description: apparent KD of MS2 coat protein; designed switch direction (-1 OFF switch, 1 ON switch): 1; higher = weaker reporter binding. Summed up: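 SNAP-549-labelled MS2 coat protein was titrated, doubling from 0.7 or 1.5 nM to 3 µM, over designed RNA switches transcribed on Illumina chips by stalled E. coli RNA polymerase. Runs were done without input, with 200 uM small-molecule ligand, or with an oligonucleotide input. Apparent KD is the per-design median over clusters of curve-fitted normalised fluorescence.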

The mark [1] stands for this setting: input ligand: microRNA oligo, concentration not stated.
Setting [2] is: Eterna round: R95, input ligand: FMN 200 uM.
[3] abbreviates: Eterna round: R95, input ligand: microRNA oligo, concentration not stated.
[4] abbreviates: Eterna round: R95, input ligand: none.

“GUUACAUGAGGAUCACCCAUGUAUGUGUGGGAGUAAGUGUCUUAGGAUAUCUAUUAGUUAAAUUAAGAGAAGGAAGAUUGUUGU [JMF's solution 15] (Eterna round: R96, puzzle: Same State NG 3)”: under setting [1], the “apparent KD of MS2 coat protein” value turned out to be 91.4 nM.
In the case of “GUUACAUGAGGAUCACCCAUGUAUGUGUGGGAGUAAGUGUCUUAGGAUAUCUGUUAUUCAAUUUAAGAGAAGGAAGAUUGUUGU [JMF's solution 38] (Eterna round: R96, puzzle: Same State NG 3)”, the “apparent KD of MS2 coat protein” value is 97.1 nM (input ligand: FMN 200 uM), 49.5 nM under setting [1] and 76.5 nM (input ligand: none).
In the case of “GUUCCACAUGAGGAUCACCCAUGUCACGAACACGCAGGAUAUUGCCUGAGUUUGGACAGGUAAGAAGGGUGAGAGA [Dibeante] (puzzle: Same State 1)”, the “apparent KD of MS2 coat protein” value is, setting by setting: under setting [2], 64.3 nM; under setting [3], 31.9 nM; under setting [4], 28.9 nM.
As to “UAAAUAAAGUAAGGAUAUACAUGAGGAUUUCUCGUAGAAGGUACAAGACAUGAGGAUCACCCAUGUAUCGCUCGAAAGAGCGUA [Mat - Same State NG 1 - JL mod - D22] (Eterna round: R96, puzzle: Same State NG 1)”, the “apparent KD of MS2 coat protein” value reads like this: (input ligand: FMN 200 uM) 126 nM; under setting [1], 67.5 nM; (input ligand: none) 208 nM.
Regarding “UAAAUAAUGUAAGGAUAUACAUGAGGAAUUCUCGUAGAAGGUACAUGACAUGAGGAUCACCCAUGUAUCGCUCCGUAGAGCGUA [Mat - Same State NG 1 - JL mod - D26] (Eterna round: R96, puzzle: Same State NG 1)”, the “apparent KD of MS2 coat protein” value by setting is: (input ligand: FMN 200 uM) 288 nM; under setting [1], 5.78 nM; (input ligand: none) 48.8 nM.
As for “UAAGUCAUGUAAGGAUAUGCAGCCGAAACGGCUGCAGAAGGUACUAUAAUUACAUGAGGAUCACCCAUGUUAUAAAAUUUAUAU [Mat - Same State NG 1 - JL mod - D77] (Eterna round: R96, puzzle: Same State NG 1)”, the “apparent KD of MS2 coat protein” value is 22.4 nM (input ligand: FMN 200 uM), 39 nM under setting [1] and 54.5 nM (input ligand: none).
Turning to “UACAAUCUAUCUGAGGAUAUCAUGAAAAAAACAUGAGGAUCACCCAUGUGCAGGAAAACUGCAUAUGAGAAGGCAGAUAGAUUGA [salish99_SS2_r3_005] (Eterna round: R96, puzzle: Same State 2)”, the “apparent KD of MS2 coat protein” value under setting [1] amounted to 517 nM.
Consider “UACAAUCUAUCUGAGGAUAUCAUGAAAAAAACAUGAGGAUCACCCAUGUGCAGGAAAACUGCAUAUGAGAAGGCAGAUAGAUUGA [salish99_SS2_r3_005] (puzzle: Same State 2)”, for which the “apparent KD of MS2 coat protein” value is 27.4 nM under setting [2], 585 nM under setting [3] and 721 nM under setting [4].
Regarding “UACAAUCUAUCUGAGGAUAUCAUGAAUAAAACAUGAGGAUCACCCAUGUGCAGGAUAACUGCAAAUGAGAAGGCAGAUAGAUUGU [Mat - Same State 2 - Mod - D8] (puzzle: Same State 2)”, the “apparent KD of MS2 coat protein” value is 13.5 nM under setting [2], 16 nM under setting [3] and 24.1 nM under setting [4].
The corresponding values for “UAGAACAAGCUUUUUGCCCGUCUUAUAUAACAUGAGGAUCACCCAUGUAAGGUGAAAGUUAGAGAGUGGAGGUUGAA [JR_SHM208A_Sub048] (puzzle: Sensor for hsa-mir-208a)” are 216 nM, 193 nM and 156 nM.
The like results for “UAGAAUCUAUCUCAGGAUAUCAUGUCAAAGACAUGAGGAUCACCCAUGUACCAGGAAACUGGUUAUGAGAAGGGAGAUAGAUUCA [Mat - Same State 2 - Mod - D34] (puzzle: Same State 2)” were, in that order, 124 nM, 98.3 nM and 241 nM.
“UAGAGAGGAAGCGAGGAUAUCGUGGGAGGGACAUGAGGAUCACCCAUGUAGGAUGUUGAGAGGAACGAGAAGGCGCAGGAAAGUA [JR_SS2_Sub076] (puzzle: Same State 2)”: the “apparent KD of MS2 coat protein” value runs as follows: under setting [2], 92.4 nM; under setting [3], 63.5 nM; under setting [4], 91.2 nM.
For “UAGUACAAGCUUUUUGCUUGUCUUAUUUAACAUGAGGAUCACCCAUGUAAGUUGAAAGUUAGAGAGUGCACCUUCAA [JR_SHM208A_Sub052] (Eterna round: R96, puzzle: Sensor for hsa-mir-208a)”, the “apparent KD of MS2 coat protein” value runs as follows: (input ligand: FMN 200 uM) 17.2 nM; under setting [1], 17 nM; (input ligand: none) 21.6 nM.
“UAGUACAAGCUUUUUGCUUGUCUUAUUUAACAUGAGGAUCACCCAUGUAAGUUGAAAGUUAGAGAGUGCACCUUCAA [JR_SHM208A_Sub052] (puzzle: Sensor for hsa-mir-208a)”: the “apparent KD of MS2 coat protein” value by setting is: under setting [2], 18.7 nM; under setting [3], 18.9 nM; under setting [4], 17.1 nM.
With “UAGUAUCAACGAGGAUAUAAUAUGUUCAAUUUUUUAUAUUGUUUACAUGAGGAUCACCCAUGUUAUUAGAAGGCGUAUGGGAUU [JR_SSNG2_Sub083] (Eterna round: R96, puzzle: Same State NG 2)”, the “apparent KD of MS2 coat protein” value under setting [1] worked out at 47.2 nM.
In the case of “UAGUAUUAGCGAGGAUAUCGUAUGUUCAAUUUUUUAUAUUGUUUACAUGAGGAUCACCCAUGUUACGAGAAGGCGCAUGGGAUU [JR_SSNG2_Sub081] (Eterna round: R96, puzzle: Same State NG 2)”, under setting [1], the “apparent KD of MS2 coat protein” value was determined as 371 nM.
On to “UAGUUUCAACGAGGAUAUAAUAGGUUCUAUUCGUGAUAUUGCGUACAUGAGGAUCACCCAUGUUAUUAGAAGGCGUAUGGGUUU [JR_SSNG2_Sub086] (Eterna round: R96, puzzle: Same State NG 2)”, for which the “apparent KD of MS2 coat protein” value by setting is: (input ligand: FMN 200 uM) 89.9 nM; under setting [1], 59.8 nM; (input ligand: none) 77.9 nM.
“UCAAGCGUUUGGCUCGUUUUAUGUUUUGUACAUGAGGAUCACCCAUGUUUUGUACGAUCCAGUUAGAUGGUAUUUUG [JR_SHM208A_Sub039] (puzzle: Sensor for hsa-mir-208a)”: the “apparent KD of MS2 coat protein” value stood at 39.6 nM under setting [2], 93 nM under setting [3] and 56.8 nM under setting [4].
As to “UCGGGCGUACUUGCUGACAUGAGGAUCACCCAUGUAAAUGGGAAGGAUAUGGUUCCGUUUCGGUACCAGAAGGUCCUGGGUGCU [salish99_SSNG3_r04_310] (Eterna round: R96, puzzle: Same State NG 3)”, the “apparent KD of MS2 coat protein” value is, setting by setting: (input ligand: FMN 200 uM) 459 nM; under setting [1], 748 nM; (input ligand: none) 1030 nM.
The like results for “UCUGCAAGAACAGGAUAUGGGUUCAGAGCGGGAGUGCGCUUUGACACAUGAGGAUCACCCAUGUCCCAGAAGGGUUCAUGCGGC [Eseseste] (Eterna round: R96, puzzle: Same State NG 2)” were, in that order, 62.7 nM, 484 nM and 364 nM.
Regarding “UCUUGGUUUUUGCUCGUUUUUUGUGUUGAACAUGAGGAUCACCCAUGUAUUGUACAAUCCAGUUUAAUAAUGGUCCG [JMF 49] (puzzle: Sensor for hsa-mir-208a)”, the “apparent KD of MS2 coat protein” value by setting is: under setting [2], 105 nM; under setting [3], 87.3 nM; under setting [4], 130 nM.
Turning to “UCUUGGUUUUUGCUCGUUUUUUGUGUUGAACAUGAGGAUCACCCAUGUAUUGUACGGUCCAGUUUGGUGGUAGUCCG [JMF 71] (puzzle: Sensor for hsa-mir-208a)”, the “apparent KD of MS2 coat protein” value reads like this: under setting [2], 32.9 nM; under setting [3], 24.4 nM; under setting [4], 38 nM.
For “UCUUGGUUUUUGCUCGUUUUUUGUGUUGAACAUGAGGAUCACCCAUGUAUUGUACGGUCCGAUUUAAUGAUGGUCCA [JMF 39] (puzzle: Sensor for hsa-mir-208a)”, the “apparent KD of MS2 coat protein” value runs as follows: under setting [2], 32.4 nM; under setting [3], 19.7 nM; under setting [4], 34.1 nM.
For the sequence “UGAAUGGUGAUAGGAUAUACAUGAGGAAUCCUCGUAGAAGGAUCACGACAUGAGGAUCACCCAUGUAGCCGUCCGUAGACGGCA [JL SSNG1 1.23] (Eterna round: R96, puzzle: Same State NG 1)”, the “apparent KD of MS2 coat protein” value is, setting by setting: (input ligand: FMN 200 uM) 99.7 nM; under setting [1], 778 nM; (input ligand: none) 242 nM.
The corresponding values for “UGACACACGGCAGGAUAUCCUUAGCAAAGCUAAGGAGAAGGGCCUCAUGUCGUGGAAACGUGACAUGAGGAUCACCCAUGUCGC [Omei SS(NG)1 Cv8] (Eterna round: R96, puzzle: Same State NG 1)” are 58.7 nM, 5.65 nM and 34.1 nM.
The corresponding values for “UGAGCCGGCACUGAGGAUAUUCAUAUUAAAACAUGAGGAUCACCCAUGUAGGCCAGAAGGCCUUGGGAGAAGGCAGGUCGGCUCA [Mat - Same State 2 - Mod of UCT - D62] (Eterna round: R96, puzzle: Same State 2)” are 19.5 nM, 190 nM and 311 nM.
Turning to “UGAGCCGGCACUGAGGAUAUUCAUAUUAAAACAUGAGGAUCACCCAUGUAGGCCAGAAGGCCUUGGGAGAAGGCAGGUCGGCUCA [Mat - Same State 2 - Mod of UCT - D62] (puzzle: Same State 2)”, the “apparent KD of MS2 coat protein” value under setting [3] was determined as 200 nM.
For the sequence “UGCCAUUGUAUAUUGGUGCAAGCUUUUUGACAUGAGGAUCACCCAUGUACUCGUCUUAUGUGCAGUCCGUAGACUGC [JL-shm-2.23 Brourd mod] (puzzle: Sensor for hsa-mir-208a)”, the “apparent KD of MS2 coat protein” value stood at 24 nM under setting [2], 13.5 nM under setting [3] and 22.8 nM under setting [4].

(Values after the supplement of paper PMC9170038.)
